Data reported in the supplement of paper PMC7877785.
± gives the uncertainty stated by the source.

Test: self-splicing fitness, log relative to wild type (ln ratio); higher = more splicing; Tetrahymena group I intron in knt gene, E. coli kanamycin selection, DiMSum; sequences stand for … in CUCUCU…GGAGGGAAAAGUUAUCAGGCAUGCACCUGGUAGCUAGUCUUUAAACCAAUAGAUUGCAUCGGUUUAAAAGGCAAGACCGUCAAAUUGCGGGAAAGGGGUCAACAGCCGUUCAGUACCAAGUCUCAGGGGAAACUUUGAGAUGGCCUUGCAAAGGGUAUGGUAAUAAGCUGACGGACAUGGUCCUAACCACGCAGCCAAGUCCUAAGUCAACAGAUCUUCUGUUGAUAUGGAUGCAGUUCACAGACUAAAUGUCGGUCGGGGAAGAUGUAUUCUUCUCAUAAGAUAUAGUCGGACCUCUCCUUAAUGGGAGCUAGCGGAUGAAGUGAUGCAACACUGGAGCCGCUGGGAACUAAUUUGUAUGCGAAAGUAUAUUGAUUAGUUUUGGAGUACUCGUGGUCG
In short: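 The eight P1ex-region nucleotides of an intron in the knt kanamycin-resistance gene on pET-22b(+) were all randomised and the library put into E. coli BL21(DE3). Six replicate transformations were grown overnight at 37°C or 30°C on LB agar with or without 25 μg/mL kanamycin, together with 100 μg/mL carbenicillin, 50 μM IPTG and 0.2% rhamnose. Colonies were pooled and amplicon-sequenced on an Illumina HiSeq 2500. Fitness from DiMSum is the error-weighted combination of wild-type-normalised replicate fold changes, kanamycin over none.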

UGAUAGCAAUAUUACGCAAG
self-splicing fitness (ln) (37 °C): -2.3 ± 0.26

UGAUAGCAAUAUUACGCACG
self-splicing fitness (ln) (30 °C): -1.41 ± 0.3
self-splicing fitness (ln) (37 °C): -0.216 ± 0.19

UGAUAGCAAUAUUACGCGUU
self-splicing fitness (ln) (30 °C): -2.9 ± 0.24
self-splicing fitness (ln) (37 °C): -2.54 ± 0.39

UGAUAGCAAUAUUACGCUCA
self-splicing fitness (ln) (30 °C): 0.162 ± 0.15
self-splicing fitness (ln) (37 °C): -0.26 ± 0.15

UGAUAGCAAUAUUACGCUUA
self-splicing fitness (ln) (30 °C): -2.07 ± 0.12
self-splicing fitness (ln) (37 °C): -0.143 ± 0.12

UGAUAGCAAUAUUACGGACA
self-splicing fitness (ln) (30 °C): -0.237 ± 0.1
self-splicing fitness (ln) (37 °C): 0.61 ± 0.14

UGAUAGCAAUAUUACGGGCC
self-splicing fitness (ln) (30 °C): -3.78 ± 0.42

UGAUAGCAAUAUUACGGUAU
self-splicing fitness (ln) (30 °C): -3.75 ± 0.22
self-splicing fitness (ln) (37 °C): -1.92 ± 0.18

UGAUAGCAAUAUUACGGUCU
self-splicing fitness (ln) (30 °C): -0.913 ± 0.12
self-splicing fitness (ln) (37 °C): -0.257 ± 0.15

UGAUAGCAAUAUUACGGUGU
self-splicing fitness (ln) (30 °C): -3.45 ± 0.18
self-splicing fitness (ln) (37 °C): -3.09 ± 0.24

UGAUAGCAAUAUUACGUAAA
self-splicing fitness (ln) (30 °C): -3.07 ± 0.16
self-splicing fitness (ln) (37 °C): -1.64 ± 0.14

UGAUAGCAAUAUUACGUCUU
self-splicing fitness (ln) (30 °C): -1.22 ± 0.092
self-splicing fitness (ln) (37 °C): -1.33 ± 0.09

UGAUAGCAAUAUUACGUGUA
self-splicing fitness (ln) (30 °C): -2.89 ± 0.18
self-splicing fitness (ln) (37 °C): -1.38 ± 0.13

UGCAAGCAAUAUUACGAACG
self-splicing fitness (ln) (30 °C): -0.0871 ± 0.083
self-splicing fitness (ln) (37 °C): 0.961 ± 0.11

UGCAAGCAAUAUUACGAAGA
self-splicing fitness (ln) (30 °C): -1.99 ± 0.27
self-splicing fitness (ln) (37 °C): -2.3 ± 0.31

UGCAAGCAAUAUUACGACCA
self-splicing fitness (ln) (30 °C): -0.338 ± 0.37
self-splicing fitness (ln) (37 °C): -0.273 ± 0.3

UGCAAGCAAUAUUACGAUAC
self-splicing fitness (ln) (30 °C): -2.87 ± 0.23
self-splicing fitness (ln) (37 °C): -2.24 ± 0.37

UGCAAGCAAUAUUACGAUGU
self-splicing fitness (ln) (30 °C): -2.73 ± 0.16
self-splicing fitness (ln) (37 °C): -2.14 ± 0.19

UGCAAGCAAUAUUACGCACA
self-splicing fitness (ln) (30 °C): -1.38 ± 0.12
self-splicing fitness (ln) (37 °C): -0.954 ± 0.13

UGCAAGCAAUAUUACGCCGA
self-splicing fitness (ln) (30 °C): -1.38 ± 0.15
self-splicing fitness (ln) (37 °C): -0.485 ± 0.14

UGCAAGCAAUAUUACGCUGU
self-splicing fitness (ln) (30 °C): -3.03 ± 0.19
self-splicing fitness (ln) (37 °C): -2.93 ± 0.33

UGCAAGCAAUAUUACGGAAG
self-splicing fitness (ln) (30 °C): -3.38 ± 0.14
self-splicing fitness (ln) (37 °C): -1.44 ± 0.1

UGCAAGCAAUAUUACGGAUG
self-splicing fitness (ln) (30 °C): -1.25 ± 0.065
self-splicing fitness (ln) (37 °C): -0.565 ± 0.078

UGCAAGCAAUAUUACGGCGG
self-splicing fitness (ln) (30 °C): -0.854 ± 0.046
self-splicing fitness (ln) (37 °C): -0.116 ± 0.068

UGCAAGCAAUAUUACGGGGG
self-splicing fitness (ln) (30 °C): -3.16 ± 0.16
self-splicing fitness (ln) (37 °C): -2.04 ± 0.15

UGCAAGCAAUAUUACGUGCA
self-splicing fitness (ln) (30 °C): -3.02 ± 0.21
self-splicing fitness (ln) (37 °C): -3.18 ± 0.35

UGCAAGCAAUAUUACGUGUU
self-splicing fitness (ln) (30 °C): -2.22 ± 0.072
self-splicing fitness (ln) (37 °C): -1.52 ± 0.098

UGCAAGCAAUAUUACGUUAU
self-splicing fitness (ln) (30 °C): -3.76 ± 0.15
self-splicing fitness (ln) (37 °C): -1.3 ± 0.1

UGCAAGCAAUAUUACGUUUC
self-splicing fitness (ln) (30 °C): -4.31 ± 0.26
self-splicing fitness (ln) (37 °C): -3.24 ± 0.17

UGCCAGCAAUAUUACGAACA
self-splicing fitness (ln) (30 °C): -0.458 ± 0.14
self-splicing fitness (ln) (37 °C): 0.334 ± 0.17

UGCCAGCAAUAUUACGAACC
self-splicing fitness (ln) (30 °C): -3.55 ± 0.43
self-splicing fitness (ln) (37 °C): -2.29 ± 0.5

UGCCAGCAAUAUUACGAGCA
self-splicing fitness (ln) (30 °C): -1.75 ± 0.26
self-splicing fitness (ln) (37 °C): -0.682 ± 0.27

UGCCAGCAAUAUUACGAGGC
self-splicing fitness (ln) (30 °C): -4.02 ± 0.42
self-splicing fitness (ln) (37 °C): -1.44 ± 0.18

UGCCAGCAAUAUUACGAUCG
self-splicing fitness (ln) (30 °C): -0.0468 ± 0.067
self-splicing fitness (ln) (37 °C): 0.0388 ± 0.079

UGCCAGCAAUAUUACGAUUA
self-splicing fitness (ln) (30 °C): -0.904 ± 0.075
self-splicing fitness (ln) (37 °C): -0.743 ± 0.089

UGCCAGCAAUAUUACGCAAC
self-splicing fitness (ln) (37 °C): -0.966 ± 0.42

UGCCAGCAAUAUUACGCACA
self-splicing fitness (ln) (30 °C): -0.53 ± 0.093
self-splicing fitness (ln) (37 °C): -0.708 ± 0.15

UGCCAGCAAUAUUACGCAGU
self-splicing fitness (ln) (30 °C): -4.11 ± 0.24
self-splicing fitness (ln) (37 °C): -2.41 ± 0.2
